Measurements published in publication PMC7968656.

Target: protrusion protein of OmRV-LZ (N-terminal part of P3, cleaved from the ORF1-encoded precursor) (Omono River virus strain LZ (OmRV-LZ))
Assay: cryo-EM structure; sub-particle refinement of the protrusion extracted from the virus particles, capsid signal subtracted; first C1, then C5 symmetry; 4.10 Å

Substance: protrusion protein of OmRV-LZ (N-terminal part of P3, cleaved from the ORF1-encoded precursor) (natural protein)
- stoichiometry N: 5
